Source: the Human Domainome abundance scans (Beltran et al. 2025)

B1: Tripartite motif-containing protein 44, residues 174 to 218; numbered along this chain, Q96DX7 (parent)
chain: VAKRKCPDHGLDLSTYCQEDRQLICVLCPVIGAHQGHQLSTLDEA

Variants of: B1
Experiment: abundance fitness (aPCA) (normalised: wild type 0, dead -1); higher = more abundant; growth selection in yeast, the domain comes from the species named
Conditions: Homo sapiens

Abundance fitness, by site and new letter:
C25: G -0.774 | M -0.968 | H -0.798 | P -0.649 | I -1.11 | Q -0.65
L11: P -0.778 | V -0.183 | Q -0.024 | H 0.033 | G -0.169 | S -0.189 | E 0.005 | K 0.016 | M -0.05 | W -0.214
T15: S -0.03 | P -0.544 | L -0.196 | F -0.382 | R -0.054 | M -0.106 | Q 0.039 | Y 0.001
L42: Y 0.017 | P 0.027 | G 0.05 | F -0.031 | A 0.045 | N 0.002 | C 0.014
G32: A -0.425 | S -0.393 | H -0.49 | K -0.261 | D -0.417 | I -0.757 | Y -0.743
S40: N -0.118 | L -0.084 | E -0.012 | G 0.015 | R -0.033 | T -0.066 | H 0.022 | K -0.041 | Q 0.012 | M -0.103
A2: M -0.009 | V -0.037 | F 0.009 | H 0.03 | S 0.045 | D 0.053 | R -0.12
C6: H -1.1 | A -1.05 | V -1.07 | W -1.06 | M -1.04
C28: A -0.897 | M -1.07 | N -0.759 | W -1.14 | F -0.791 | D -0.557 | L -1.12 | P -0.882
D8: I 0.029 | K 0.047 | Y 0.049 | L 0.048 | C -0.103 | M 0.057 | N -0.045
Q38: D 0.036 | Y -0.145 | E 0.007 | V -0.071 | I -0.045 | H 0.024 | W -0.255 | P -0.03 | A -0.032 | N 0.029
E19: N -0.033 | W -0.153 | Y -0.082 | R -0.098 | D 0.045 | H -0.032
Q22: G -0.109 | L -0.074 | K 0.027 | V -0.039 | C 0.042 | S 0.007 | P -0.726
H9: N -0.838 | I -0.891 | M -0.901 | T -0.919 | D -0.981 | A -1 | Q -0.964 | V -0.986
D20: L -0.656 | A -0.585 | K -0.3 | M -0.685 | T -0.217 | E -0.033 | Q -0.377 | N -0.419
D43: I -0.132 | V -0.056 | R -0.072 | Q -0.035 | Y -0.112 | W -0.211 | L -0.107
L13: Q -0.009 | M -0.031 | V -0.082 | N -0.296 | K -0.204 | G -0.282 | Y -0.147 | P -0.276 | C -0.034
I24: Y -0.262 | C -0.043 | F -0.173 | A -0.121 | K -0.138 | T -0.052
P7: G -0.169 | C -0.141 | E -0.446 | R -0.168 | K -0.342
D12: N -0.072 | E 0.003 | L -0.166 | K -0.082 | F -0.15 | W -0.141 | Q -0.116
I31: F -0.11 | P -0.306 | D 0.062 | K 0.067 | A 0.022
A33: H -0.031 | D -0.068 | S 0.019 | E -0.032 | L -0.079 | C -0.048
P29: Q -0.071 | K -0.004 | F -0.198 | S 0.012 | A -0.097 | N -0.064 | T -0.021 | Y -0.098
